Laboratory results reported in the nanobody polyreactivity screen of Harvey et al. (2022).

Test: yeast display, Sf9 membrane polyspecificity reagent, FACS + sequencing; frameworks hold sequencing errors
Summary of the method: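 Nanobodies from a synthetic yeast display library (Saccharomyces cerevisiae BJ5465), induced 36–48 hours with galactose, were stained 1 hour at 4 °C with 10% biotinylated, detergent-solubilized Sf9 membrane reagent, enriched on streptavidin microbeads, then FACS-sorted. Anti-HA (expression) and streptavidin (reagent binding) fluorescence set low and high (top ~1%) gates. Polyreactivity labels come from the gate of origin. Genes were colony-PCR amplified, MiSeq 2 × 250 sequenced and filtered by CDR length.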

Sequence | polyreactivity (PSR sort gate)
QVQLVESGGGLVQAGGSLRLSCAASGSASRGNAMGWYRQAPGKERELVATISQSGGNTFYADSVKGRFTISRDNAKNSVYLQMNSLKPEDTAVYYCAAGRYWFGWYDYWGQGTQVTVSS | high polyreactivity
QVQLVESGGGLVQAGGSLRLSCAASGSIISPNAMGWYRQAPGKERELVATISFSGGRTYYADSVKGLVTISRDNAKNTVYLQMNSLKPEDTAVYYCAKAYYYTDMDYWGQGTQVTVSS | low polyreactivity
QVQLVESGGGLVQAGGSLRLSCAASGFTFQYYTMGWYRQAPGKERELVAAISGSGGRTYYADSVKGRFTISRDNAKNTVYLQMNSLKPEDTAVYYCAKVYNRVYYGKGDYWGQGTQVTVSS | high polyreactivity
QVQLVESGGGLVQAGGSLRLSCAASGITFTYYAMGWYRQAPGKERELVAAISYSGGSTYYADSVKGRFTISRDNAKITGYLQMNSLKREDTAVYYCATDARDGHDYWGQGTQVTVSS | high polyreactivity
QVQLVESGGGLVQAGGSLRLSCAASGSIFVGYAMGWYRQAPGKERELVAAISVRGASTYYADSVKGRFTISRDNAKNTVYLQMNSLKPEDTAVYYCAARGNTPRTRRYGYWGQGTQVTVSS | high polyreactivity
QVQLVESGGGLVQAGGSLRLICAASGTTFGRNAMGWYRQAPGKERELVDAIDSGASTYYADSVKGRFTISRDNAKNTVYLQMNSLKPEDTAVYYCGADVVYDYGGMDYWGQGTQVTVSS | low polyreactivity
QVQLVESGGGLVQAGGSLRLSCAASGFTFPVNAMGWYRQAPGKERELVATINSGGSTNYADSVKGRFTISRDNAKNTVYLQMNSLKPEDTAVYYCAAVTTDGVYAFDYWGQGTQVTVSS | low polyreactivity
QVQLVESGGGLVQAGGSLRLTCAASGRTFWYYAMGWYRQAPGKERELVAAISRNGGSTYYEDSVKGRFTISRDNAKNTVYLQMNSLKPEDTAVYYCAATLLRDYDYWGQGTQVTVSS | high polyreactivity
QVQLVESGGGLVQAGGSLRLSCADSGSIFFPYAMGWYRQAPGKERYLVAAISSGTSTYYADSVKGRFTISRDNAKNTVYLQMNSLKPEDTAVFYCNARHRRGRFTHDYDYWGQGTQVTVSS | low polyreactivity
QVQLVESGGGLVQARGSLRLSCPASGITFARYAMEWSRQAPGKERELVAAISYGGGSTYYADSVKGRFTISRDNAKNTVYLQMNSLKPEDTSVYYCNNVPRKSYGYWGQGTQVTVSS | high polyreactivity
QVQLVESGGGLVQAGGSLRLSCAASGGIFAYYVMGWYRQAPGKERELVASISSGGGTYYADSVKGRFTISRDNAKNTVYLQMNSLKPEDTAVYYCAARWLRYVYPDGHLFWYDYWGQGTQVTVSS | high polyreactivity
QVHLVESCGGLVQAGGSLRLSCAASGNTFVYNDMGWYRQAPGKERELVDDIRYSGSTYYADSVKGRFTISRDNAKNTVYLQMNSLKPEDTAVYYCAKAYYVLSWMGYWGQGTQVTVSS | low polyreactivity
QVQLVESGGGLVQAGGSLRLSCAASGFTFKCYTMGWYRQAPGKERELVAGISRRGGSTYYADSVKGRFTISRDNAKNTVYLQMNSLKPEDTAVYDCAADSQLTKFYYWGQGSQVTVSS | high polyreactivity
QVLLVESGGGLVQEGGSLRLSCAASGIIFQFYAMGWYRQAPGKERELVAAISRSGGITHYADSVKGRFTISRDNAKNTVYLQMNSLKPEDTAVYYCAAVRQAYPRLDYWGQGTQVTVSS | high polyreactivity
QVQLVESGGGLVQAGGSLRLSCAASGSIFRPNAMGWYRQAPGKERELVAAITWSGDSTYYADSVKGRFTISRDNAKNTVYLQMNSLKPEDTAVYYCAKYSLVFYISLYGYWGQGTQVTVSS | low polyreactivity
QVQLVESGGGLVQAGGSLRLSCAASGSTLRTYAMVWYRQAPGKERELVAAISFSTTSTYYADSVKGRFTISRDNATNTVYLQMNSLKPEDTAVYYCAATYQILTTSAHDSWGQGTQVTVSS | high polyreactivity

Sequence | polyreactivity (PSR sort gate)
QVQIEESGGGLVQAGGSLRLSCAASGFTFRWYAMGWSIQAPGKERELVAAIDWSGGSTNYADSVKGRFTISRDNAKNTVYLQMNSLKPEDTAVYYCAAVWRYWYPGFVPYDYWGQGTQVTVSS | high polyreactivity
QVQLVDSGGGLVQAGGSLRLSCAASGFTFRPYAMGWYRQAPGKERELVATITGRGGSTYYADSVKGRFTISRDTAKNTVYLQMNSLKPEDTAVYYCASRARYSPAPYDYWGQGTQVTVSS | high polyreactivity
QVQLVESGGGLVQAGGSLRLSCAASGFIFRYYAMGWYRQAPGKERELVAAISRSGGSTYYADSVKGRFTISRDNAKNTVYLQMNSLKPEDTAVYYCAALQSRSWYQFNYWGQGTQVTVSS | high polyreactivity
QVQLVESGGGLVQAGGSLRLSSAASGITFRNYAMGWSRQAPGKERELVAAITRGGRTNYADSVKGRFTISRDNAKNTVYLQMNSLKPEDTAVYYCATGRDSNFGNSYYYWGQGTQVTVSS | high polyreactivity
QVQLVESGGGLVQAGVSLRLSCAASGTIFYTYTMGWYRQAPRKERELVATIRSTGSTDYADSVKGRFTISRDNAMNTVYLQMNSLKREDTAVYYCNADRFGDYDYWGQGTQVTVSS | low polyreactivity
QVQLVESGGGLVQAGGSLRLSCAASGITFKTYAMGWYRQAPGKVRELVATITRGSRTNYADSVKGRFTISRDNAKNTVYLQMNSLKREHTAVYYCAAHYTTFIRSPDGDYLGQGTQVTVSS | low polyreactivity
QDQLVESGGGLVQAGGSLRLSCAASGRTFGYNAMGWYRQAPGKERELVAANNWSGASTYYADSVKGRFTISRDNAKNTVYLQMNSLKPDDSAVYYCAADYSYIYGFDYWGQGTQVTVSS | low polyreactivity
QVQLVESGGGLVQAGGSLRLSCAASGSTFKSNAMGWYRQAPGKERELVAAINRSGAGTYYADSVKGRFTISRDNAKHTVYLQLNSLKPEDTAVYYCAAQSYSRRYDYWGQGTQVTVSS | high polyreactivity
QVQLVESGGGLVQAGGSLRLSCAASGSIIDYYAMGWYRQAPGKERELVAAISSSVGITYYADSVKGRFTISRDNAKNTVYLQMNSLKPEDTAVYYCAADLYGWYFYNQEYDSWGQGTQVTVSS | low polyreactivity
QVQLVESGGGLVQAGGSLRLSCAASGSTFIYNTMGWYRQAPGKEREFVAAITQSGGDTYYADSVKGRFTISRDNAKNTVYLQMNSLKPEDTADYYCAAYWILNNFEMYYWGQGPQVTVSS | low polyreactivity
QVQLVESGGGLVQAGGSLRLSWAASGRTFKSNAMGWYRPAPGKERELVAAISWGGGSTYYADSVKGRFTISRDNAKNTVYLQMNSLKPEDTAVYYCARRDIYGSYGFYTGGVDYWGQGTQVTVSS | low polyreactivity
QVQLVESGGGLVQAGGSLRLSCAASGNILASNAMGWYRQAPGKERELVAAITISGDTTYYADSVKGRFTISRDNAKNTVYLQMNSLKPEDTAVYYCNAVSFIVNGGYDGDYWGQGTQVTVSS | low polyreactivity
QVQLVESGGGLVQAGGSLRLSCAASGRTFSRNAMAWYRQAPGKERELVAAISRRGVSTYYADSVKGRFTISRDNAKNTVYLQMNSLKPDDTAVFYCNTRGTYRYDYWGQGTQVTVSS | low polyreactivity
QVQLVESGGGLVQAGGSLRISFAASGFTFNLYAMGWYRQAPGKERELVAAISWSGGRTYYADSVKGRFTISRDNAKNTVYLQMNSLKPEDTAVYYCNAPYWTSKSRFDYWGQGTQVTVSS | low polyreactivity
QVQLVESGGGLVQAGGSLSLSCAASGNTFPYYAMGWYRPAPGKERELVAAIRAGGGSTYYADSVKGRFTISRDNAKNTVYLQMNSLKPEDTAVYYCNADSDYNQYYLAVIHSILDYWGHGTQVTVSS | low polyreactivity
QVQLVESGGLLVQAGGSLRLSCAASGSTFYYNDMGWYRQAPGKEREFVAAISSRGGSTYDADSVKGRFTISRDNAKNTVYLQMNSLKPEDTAVYYCAAKDRHRYDWGQGTQVTVSS | high polyreactivity
